Paper PMC8156467, “Disruption of YY1-EZH2 Interaction Using Synthetic Peptides Inhibits Breast Cancer Development” (Cancers, 2021)

Key:
[1] = target: Yin Yang 1 (YY1), endogenous (human (endogenous in MDA-MB-231)) (UniProt P25490)
[2] = target: enhancer of zeste homolog 2 (EZH2), endogenous (human (endogenous in MDA-MB-231)) (UniProt Q15910)
Chain of enhancer of zeste homolog 2 (EZH2), endogenous (human (endogenous in MDA-MB-231)) (Q15910 whole entry): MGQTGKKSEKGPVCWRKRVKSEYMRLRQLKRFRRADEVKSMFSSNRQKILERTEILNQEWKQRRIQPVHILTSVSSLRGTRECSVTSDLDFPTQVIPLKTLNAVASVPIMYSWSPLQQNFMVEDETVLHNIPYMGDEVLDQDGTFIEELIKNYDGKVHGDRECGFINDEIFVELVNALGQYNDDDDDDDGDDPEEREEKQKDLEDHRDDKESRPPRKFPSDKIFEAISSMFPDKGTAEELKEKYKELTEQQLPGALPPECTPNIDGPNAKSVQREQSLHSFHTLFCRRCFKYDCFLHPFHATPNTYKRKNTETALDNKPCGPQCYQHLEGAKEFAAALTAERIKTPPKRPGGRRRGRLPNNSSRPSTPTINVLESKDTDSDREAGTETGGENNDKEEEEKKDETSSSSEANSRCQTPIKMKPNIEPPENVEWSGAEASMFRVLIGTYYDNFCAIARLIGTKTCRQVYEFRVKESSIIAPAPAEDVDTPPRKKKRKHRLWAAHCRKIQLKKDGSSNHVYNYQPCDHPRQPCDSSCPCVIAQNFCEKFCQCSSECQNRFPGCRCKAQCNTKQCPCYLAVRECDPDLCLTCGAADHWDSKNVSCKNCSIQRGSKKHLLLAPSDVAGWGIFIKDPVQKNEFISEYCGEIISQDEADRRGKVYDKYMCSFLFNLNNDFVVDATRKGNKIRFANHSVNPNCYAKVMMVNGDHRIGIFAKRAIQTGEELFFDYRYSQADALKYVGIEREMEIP

Chain of synthetic FITC-TAT-3×Glycine-OPB peptide (P25490 whole entry): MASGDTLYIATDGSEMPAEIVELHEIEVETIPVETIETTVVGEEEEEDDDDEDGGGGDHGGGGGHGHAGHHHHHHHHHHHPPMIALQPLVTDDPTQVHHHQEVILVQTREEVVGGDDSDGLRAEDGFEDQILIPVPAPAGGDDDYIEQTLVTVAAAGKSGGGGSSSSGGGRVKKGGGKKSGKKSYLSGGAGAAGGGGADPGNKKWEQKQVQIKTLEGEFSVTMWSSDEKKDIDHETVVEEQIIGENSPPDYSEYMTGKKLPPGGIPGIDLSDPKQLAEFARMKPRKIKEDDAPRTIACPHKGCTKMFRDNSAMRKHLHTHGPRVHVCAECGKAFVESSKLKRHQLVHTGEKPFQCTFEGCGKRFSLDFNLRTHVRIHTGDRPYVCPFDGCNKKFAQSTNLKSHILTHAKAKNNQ
Chain of Yin Yang 1 (YY1), endogenous (human (endogenous in MDA-MB-231)) (P25490 whole entry): as above

| Substance | IC50 of cell viability (WST-1, 48 h) in MCF-7, MDA-MB-231 and MDA-MB-453 breast cancer cells; the peptide blocks YY1-EZH2 (m1 with m2) [1] | IC50 of cell viability (WST-1, 48 h) in MCF-7, MDA-MB-231 and MDA-MB-453 breast cancer cells; the peptide blocks YY1-EZH2 (m1 with m2) [2] |
| --- | --- | --- |
| synthetic FITC-TAT-3×Glycine-YPB peptide (from UniProt Q15910-2 493-519) | 20 µM |  |
| synthetic FITC-TAT-3×Glycine-OPB peptide (from UniProt P25490 201-226) |  | 20 µM |
